Reference: US8541373B2, “BChE albumin fusions for the treatment of cocaine abuse” (priority 2009, dated 2013)

Tested on: cocaine
Test: Plasma cocaine, benzoylecgonine and ecgonine methyl ester (LC-MS) and cocaine PK after IV cocaine post-AlbuBChE
Type: in vivo, cynomolgus monkeys
Description: Blood was placed into K2EDTA blood collection tubes with esterase inhibitor diisopropylfluorophosphate (DFP). Tubes were inverted several times and placed on wet ice upon collection. Samples were centrifuged at 2-8° C. within 45 minutes of collection. The resultant plasma was recovered and a single 200 μL aliquot of plasma was placed into polypropylene tubes. Plasma samples were frozen over dry ice and stored at −75±15° C.
The following outline describes the LC-MS-based assay employed for the measurement of cocaine in plasma samples. Prior to MS analysis, plasma samples, calibration standards and controls were extracted using supported liquid extraction (SLE-ISOLUTE, Biotage). Twenty-five microliters of samples (25 μL) received 150 μl of 5% Ammonium hydroxide and 25 μl internal standard solution (Cocaine-d3). After mixing and transfer to SLE plate, samples were eluted with methylene chloride and evaporated to dryness. After resuspension in 50 μl of reconstitution solution—5% ACM in 10 mM ammonium acetate in water, 10 μl was injected onto Thermo Hypercarb column at 0.5 ml/min. Mobile phase was biphasic. Mass spectrophotometric detection was performed using Api 4000, APCI positive interface and Multiple Reaction Monitoring (MRM). Plasma concentrations of cocaine, benzoylecgonine and ecgonine methyl ester were determined using this assay.
When the data permits, pharmacokinetic parameter values for cocaine and its metabolites were determined using plasma concentration-times profiles for individual animals at all the study days of cocaine administration. […] Specifically the model for non-compartmental analysis with IV bolus input for cocaine and extravascular input for the metabolites.

[1] = 1 mg/kg IM, cocaine 1 mg/kg IV 96 hr post-AlbuBChE, 20 min after cocaine
[2] = 1 mg/kg IM, cocaine 1 mg/kg IV 96 hr post-AlbuBChE, 30 min after cocaine
[3] = 1 mg/kg IM, cocaine 1 mg/kg IV 96 hr post-AlbuBChE, 40 min after cocaine
[4] = 1 mg/kg IM, cocaine 1 mg/kg IV 96 hr post-AlbuBChE, 60 min after cocaine
[5] = 1 mg/kg IM, cocaine 1 mg/kg IV 120 hr post-AlbuBChE
[6] = 1 mg/kg IM, cocaine 1 mg/kg IV 120 hr post-AlbuBChE, 5 min after cocaine
[7] = 1 mg/kg IM, cocaine 1 mg/kg IV 120 hr post-AlbuBChE, 10 min after cocaine
[8] = 1 mg/kg IM, cocaine 1 mg/kg IV 120 hr post-AlbuBChE, 15 min after cocaine
[9] = 1 mg/kg IM, cocaine 1 mg/kg IV 120 hr post-AlbuBChE, 20 min after cocaine
[10] = 1 mg/kg IM, cocaine 1 mg/kg IV 120 hr post-AlbuBChE, 30 min after cocaine
[11] = 1 mg/kg IM, cocaine 1 mg/kg IV 120 hr post-AlbuBChE, 40 min after cocaine
[12] = 1 mg/kg IM, cocaine 1 mg/kg IV 120 hr post-AlbuBChE, 60 min after cocaine
[13] = 1 mg/kg IM, cocaine 1 mg/kg IV 240 hr post-AlbuBChE
[14] = 1 mg/kg IM, cocaine 1 mg/kg IV 240 hr post-AlbuBChE, 5 min after cocaine
[15] = 1 mg/kg IM, cocaine 1 mg/kg IV 240 hr post-AlbuBChE, 10 min after cocaine
[16] = 1 mg/kg IM, cocaine 1 mg/kg IV 240 hr post-AlbuBChE, 15 min after cocaine
[17] = 1 mg/kg IM, cocaine 1 mg/kg IV 240 hr post-AlbuBChE, 20 min after cocaine
[18] = 1 mg/kg IM, cocaine 1 mg/kg IV 240 hr post-AlbuBChE, 30 min after cocaine
[19] = 1 mg/kg IM, cocaine 1 mg/kg IV 240 hr post-AlbuBChE, 40 min after cocaine
[20] = 1 mg/kg IM, cocaine 1 mg/kg IV 240 hr post-AlbuBChE, 60 min after cocaine
[21] = 5 mg/kg IM, cocaine 1 mg/kg IV 2 hr post-AlbuBChE
[22] = 5 mg/kg IM, cocaine 1 mg/kg IV 2 hr post-AlbuBChE, 5 min after cocaine
[23] = 5 mg/kg IM, cocaine 1 mg/kg IV 2 hr post-AlbuBChE, 10 min after cocaine
[24] = 5 mg/kg IM, cocaine 1 mg/kg IV 2 hr post-AlbuBChE, 15 min after cocaine
[25] = 5 mg/kg IM, cocaine 1 mg/kg IV 2 hr post-AlbuBChE, 20 min after cocaine
[26] = 5 mg/kg IM, cocaine 1 mg/kg IV 2 hr post-AlbuBChE, 30 min after cocaine
[27] = 5 mg/kg IM, cocaine 1 mg/kg IV 2 hr post-AlbuBChE, 40 min after cocaine
[28] = 5 mg/kg IM, cocaine 1 mg/kg IV 2 hr post-AlbuBChE, 60 min after cocaine
[29] = 5 mg/kg IM, cocaine 1 mg/kg IV 48 hr post-AlbuBChE
[30] = 5 mg/kg IM, cocaine 1 mg/kg IV 48 hr post-AlbuBChE, 5 min after cocaine

For AlbuBChE, the “Ecgonine methyl ester plasma concentration (mean)” value [1] was 47.3 ng/mL, the “Mean benzoylecgonine plasma concentration” value [1] was 43.7 ng/mL and the “Mean cocaine plasma concentration” value [1] was 208 ng/mL. The “Ecgonine methyl ester plasma concentration (mean)” value [2] was 57.3 ng/mL, the “Mean benzoylecgonine plasma concentration” value [2] was 47.4 ng/mL and the “Mean cocaine plasma concentration” value [2] was 162 ng/mL. The “Ecgonine methyl ester plasma concentration (mean)” value [3] was 64.4 ng/mL, the “Mean benzoylecgonine plasma concentration” value [3] was 46.7 ng/mL and the “Mean cocaine plasma concentration” value [3] was 123 ng/mL. The “Ecgonine methyl ester plasma concentration (mean)” value [4] was 59.9 ng/mL, the “Mean benzoylecgonine plasma concentration” value [4] was 49.6 ng/mL and the “Mean cocaine plasma concentration” value [4] was 64.8 ng/mL. For the same substance, the “Mean benzoylecgonine AUC(0-t)” value [5] was 2809 ng·min/mL, the “Mean cocaine AUC % Extrap” value [5] was 22.4% and the “Mean cocaine AUC(0-t)” value [5] was 11526 ng·min/mL. For the same substance, the “Mean cocaine AUC(0-∞)” value [5] was 14838 ng·min/mL, the “Mean cocaine C0” value [5] was 491 ng/mL and the “Mean cocaine CI” value [5] was 67.4 mL/min/kg. For the same substance, the “Mean cocaine Vss” value [5] was 2.687 L/kg, the “Mean cocaine t½” value [5] was 28.6 min and the “Ecgonine methyl ester plasma concentration (mean)” value [6] was 42.7 ng/mL. For the same substance, the “Mean benzoylecgonine plasma concentration” value [6] was 37.2 ng/mL, the “Mean cocaine plasma concentration” value [6] was 356 ng/mL and the “Ecgonine methyl ester plasma concentration (mean)” value [7] was 27.4 ng/mL. For the same substance, the “Mean benzoylecgonine plasma concentration” value [7] was 38.9 ng/mL, the “Mean cocaine plasma concentration” value [7] was 263 ng/mL and the “Ecgonine methyl ester plasma concentration (mean)” value [8] was 37.8 ng/mL. For the same substance, the “Mean benzoylecgonine plasma concentration” value [8] was 42.2 ng/mL, the “Mean cocaine plasma concentration” value [8] was 233 ng/mL and the “Ecgonine methyl ester plasma concentration (mean)” value [9] was 31.8 ng/mL. The “Mean benzoylecgonine plasma concentration” value [9] was 40.2 ng/mL, the “Mean cocaine plasma concentration” value [9] was 202 ng/mL and the “Ecgonine methyl ester plasma concentration (mean)” value [10] was 104 ng/mL. For the same substance, the “Mean benzoylecgonine plasma concentration” value [10] was 51.3 ng/mL, the “Mean cocaine plasma concentration” value [10] was 161 ng/mL and the “Ecgonine methyl ester plasma concentration (mean)” value [11] was 68.6 ng/mL. For the same substance, the “Mean benzoylecgonine plasma concentration” value [11] was 50.9 ng/mL, the “Mean cocaine plasma concentration” value [11] was 141 ng/mL and the “Ecgonine methyl ester plasma concentration (mean)” value [12] was 76.8 ng/mL. The “Mean benzoylecgonine plasma concentration” value [12] was 54.4 ng/mL, the “Mean cocaine plasma concentration” value [12] was 79.7 ng/mL and the “Mean benzoylecgonine AUC(0-t)” value [13] was 3660 ng·min/mL. For the same substance, the “Mean cocaine AUC % Extrap” value [13] was 26.7%, the “Mean cocaine AUC(0-t)” value [13] was 14364 ng·min/mL and the “Mean cocaine AUC(0-∞)” value [13] was 19623 ng·min/mL. For the same substance, the “Mean cocaine C0” value [13] was 467 ng/mL, the “Mean cocaine CI” value [13] was 51.1 mL/min/kg and the “Mean cocaine Vss” value [13] was 2.288 L/kg. For the same substance, the “Mean cocaine t½” value [13] was 31.0 min, the “Ecgonine methyl ester plasma concentration (mean)” value [14] was 92.7 ng/mL and the “Mean benzoylecgonine plasma concentration” value [14] was 40.0 ng/mL. For the same substance, the “Mean cocaine plasma concentration” value [14] was 397 ng/mL, the “Ecgonine methyl ester plasma concentration (mean)” value [15] was 21.9 ng/mL and the “Mean benzoylecgonine plasma concentration” value [15] was 47.2 ng/mL. The “Mean cocaine plasma concentration” value [15] was 340 ng/mL, the “Ecgonine methyl ester plasma concentration (mean)” value [16] was 25.9 ng/mL and the “Mean benzoylecgonine plasma concentration” value [16] was 55.0 ng/mL. For the same substance, the “Mean cocaine plasma concentration” value [16] was 300 ng/mL, the “Ecgonine methyl ester plasma concentration (mean)” value [17] was 29.5 ng/mL and the “Mean benzoylecgonine plasma concentration” value [17] was 56.7 ng/mL. The “Mean cocaine plasma concentration” value [17] was 259 ng/mL, the “Ecgonine methyl ester plasma concentration (mean)” value [18] was 41.3 ng/mL and the “Mean benzoylecgonine plasma concentration” value [18] was 64.6 ng/mL. For the same substance, the “Mean cocaine plasma concentration” value [18] was 218 ng/mL, the “Ecgonine methyl ester plasma concentration (mean)” value [19] was 51.8 ng/mL and the “Mean benzoylecgonine plasma concentration” value [19] was 68.3 ng/mL. For the same substance, the “Mean cocaine plasma concentration” value [19] was 181 ng/mL, the “Ecgonine methyl ester plasma concentration (mean)” value [20] was 54.3 ng/mL and the “Mean benzoylecgonine plasma concentration” value [20] was 75.2 ng/mL. For the same substance, the “Mean cocaine plasma concentration” value [20] was 117 ng/mL, the “Mean benzoylecgonine AUC(0-t)” value [21] was 1405 ng·min/mL and the “Mean cocaine AUC(0-t)” value [21] was 3289 ng·min/mL. The “Mean cocaine C0” value [21] was 271 ng/mL, the “Ecgonine methyl ester plasma concentration (mean)” value [22] was 337 ng/mL and the “Mean benzoylecgonine plasma concentration” value [22] was 22.3 ng/mL. For the same substance, the “Mean cocaine plasma concentration” value [22] was 145 ng/mL, the “Ecgonine methyl ester plasma concentration (mean)” value [23] was 321 ng/mL and the “Mean benzoylecgonine plasma concentration” value [23] was 23.7 ng/mL. For the same substance, the “Mean cocaine plasma concentration” value [23] was 77.9 ng/mL, the “Ecgonine methyl ester plasma concentration (mean)” value [24] was 363 ng/mL and the “Mean benzoylecgonine plasma concentration” value [24] was 22.0 ng/mL. For the same substance, the “Mean cocaine plasma concentration” value [24] was 43.5 ng/mL, the “Ecgonine methyl ester plasma concentration (mean)” value [25] was 331 ng/mL and the “Mean benzoylecgonine plasma concentration” value [25] was 22.9 ng/mL. The “Mean cocaine plasma concentration” value [25] was 12.8 ng/mL, the “Ecgonine methyl ester plasma concentration (mean)” value [26] was 266 ng/mL and the “Mean benzoylecgonine plasma concentration” value [26] was 31.1 ng/mL. For the same substance, the “Mean cocaine plasma concentration” value [26] was 110 ng/mL, the “Ecgonine methyl ester plasma concentration (mean)” value [27] was 308 ng/mL and the “Mean benzoylecgonine plasma concentration” value [27] was 21.3 ng/mL. For the same substance, the “Mean cocaine plasma concentration” value [27] was 4.96 ng/mL, the “Ecgonine methyl ester plasma concentration (mean)” value [28] was 248 ng/mL and the “Mean benzoylecgonine plasma concentration” value [28] was 20.1 ng/mL. For the same substance, the “Mean cocaine plasma concentration” value [28] was 2.26 ng/mL, the “Mean benzoylecgonine AUC(0-t)” value [29] was 1441 ng·min/mL and the “Mean cocaine AUC % Extrap” value [29] was 3.0%. For the same substance, the “Mean cocaine AUC(0-t)” value [29] was 3015 ng·min/mL, the “Mean cocaine AUC(0-∞)” value [29] was 3110 ng·min/mL and the “Mean cocaine C0” value [29] was 177 ng/mL. The “Mean cocaine CI” value [29] was 325 mL/min/kg, the “Mean cocaine Vss” value [29] was 5.729 L/kg and the “Mean cocaine t½” value [29] was 11.4 min. The “Ecgonine methyl ester plasma concentration (mean)” value [30] was 119 ng/mL, the “Mean benzoylecgonine plasma concentration” value [30] was 20.0 ng/mL and the “Mean cocaine plasma concentration” value [30] was 126 ng/mL.
